Results on 5 substances are retold here after publication PMC7203109.

Series [1] has as its system FLAG-ATRX-HA (full-length hATRX) (Homo sapiens). The experiment in a line: pull-down qPCR. Particulars: 2 ug protein; Pull-down: 2 mM MgCl2, 100 U/ml RNase inhibitor, 0.1 mg/ml yeast tRNA, 0.05% BSA, 0.2% NP-40, 4 °C overnight, washes 150 and 15 mM NaCl; EMSA: 50 mM Tris pH ….
Series [2] has as its system FLAG-ATRXΔRBR-HA (Homo sapiens). Description: pull-down qPCR. The following applies: 2 ug protein; Pull-down: 2 mM MgCl2, 100 U/ml RNase inhibitor, 0.1 mg/ml yeast tRNA, 0.05% BSA, 0.2% NP-40, 4 °C overnight, washes 150 and 15 mM NaCl; EMSA: 50 mM Tris pH …. (In EMSA bound probe runs differently from free probe, usually more slowly.)
Series [3] concerns GST-RBR (ATRX RNA binding region) (Homo sapiens). Description: pull-down qPCR. The following applies: 2 ug protein; Pull-down: 2 mM MgCl2, 100 U/ml RNase inhibitor, 0.1 mg/ml yeast tRNA, 0.05% BSA, 0.2% NP-40, 4 °C overnight, washes 150 and 15 mM NaCl; EMSA: 50 mM Tris pH ….
The subject of series [4] is FLAG-ATRX helicase domain (F6). Description: pull-down RT-qPCR. The following applies: 25 pmol protein; binds, less than GST-RBR; Pull-down: 2 mM MgCl2, 100 U/ml RNase inhibitor, 0.1 mg/ml yeast tRNA, 0.05% BSA, 0.2% NP-40, 4 °C overnight, washes 150 and 15 mM NaCl; EMSA: 50 mM Tris pH ….
Series [5] relates to FLAG-ATRX-HA (full-length hATRX) (Homo sapiens). Description: pull-down RT-qPCR. Particulars: 2 ug protein, Pull-down: 2 mM MgCl2, 100 U/ml RNase inhibitor, 0.1 mg/ml yeast tRNA, 0.05% BSA, 0.2% NP-40, 4 °C overnight, washes 150 and 15 mM NaCl, EMSA: 50 mM Tris pH ….
For series [6], the system named is FLAG-ATRXΔRBR-HA (Homo sapiens). Description: pull-down RT-qPCR. Particulars: 2 ug protein, yeast tRNA; Pull-down: 2 mM MgCl2, 100 U/ml RNase inhibitor, 0.1 mg/ml yeast tRNA, 0.05% BSA, 0.2% NP-40, 4 °C overnight, washes 150 and 15 mM NaCl; EMSA: 50 mM Tris pH ….
Series [7] concerns GST-RBR (ATRX RNA binding region) (Homo sapiens). The experiment in a line: pull-down RT-qPCR. Particulars: Pull-down: 2 mM MgCl2, 100 U/ml RNase inhibitor, 0.1 mg/ml yeast tRNA, 0.05% BSA, 0.2% NP-40, 4 °C overnight, washes 150 and 15 mM NaCl, EMSA: 50 mM Tris pH ….
The test system is the same in series [8]. Description: competition pull-down RT-qPCR. The following applies: Pull-down: 2 mM MgCl2, 100 U/ml RNase inhibitor, 0.1 mg/ml yeast tRNA, 0.05% BSA, 0.2% NP-40, 4 °C overnight. In general terms: Quantitative PCR measures a nucleic acid by following its amplification.
Series [9] has as its system FLAG-ATRX-HA (full-length hATRX) (Homo sapiens). Description: EMSA. The following applies: 5 mM Mg2+, yeast tRNA competitor; citation to ref 11 stands next to the value; Pull-down: 2 mM MgCl2, 100 U/ml RNase inhibitor, 0.1 mg/ml yeast tRNA, 0.05% BSA, 0.2% NP-40, 4 °C overnight, washes 150 and 15 mM NaCl; EMSA: 50 mM Tris pH ….

Regarding MBP DNA, 300 bp, the binding signal in series [1] was 0.197 % input; in [2], 0.185 % input; in series [3], 0.000184 % input.

Turning to Xist Repeat A DNA, 435 bp, the binding signal turned out to be 0.478 % input in [1], 0.23 % input in [2] and 0.002 % input in [3].

Turning to Xist Repeat A RNA, 435 nt, the binding signal in series [4] is 0.741 % input; in series [5] (yeast tRNA) it was 8 % input; in [6], 3.43 % input; in [7] (25 pmol protein) it was 1.8 % input; in [7] (0.5 ug protein), 0.342 % input; in series [7] (1 ug protein), 1.99 % input. In addition, the binding signal in [7] (2 ug protein, yeast tRNA) turned out to be 3.08 % input; in series [7] (2 ug protein) it was 2.92 % input; in [7] (3 ug protein), 9.29 % input; in series [8] (mixed with 5 ug MBP RNA, washes 150 and 15 mM …, EMSA: 50 mM Tris pH 8.0), 3.04 % input.

Consider Xist Repeat A RNA, 192-nt fragment, for which the dissociation constant Kd (in general, the constant that tells how readily two partners part at equilibrium) in [9] came out at 0.0179 µM.

MBP RNA, 300 nt: the binding signal in [5] amounted to 1.28 % input; in [7] (0.5 ug protein), 0.142 % input; in series [7] (1 ug protein), 0.189 % input; in [7] (2 ug protein, yeast tRNA) it was 0.974 % input; in [7] (2 ug protein) it was 0.183 % input; in series [7] (3 ug protein), 0.22 % input. The binding signal in series [8] (mixed with 5 ug Repeat A RNA, washes 150 and 15 mM NaCl, EMSA: 50 mM Tris pH …) amounted to 0.0666 % input.
